In US20250296912A1, “AFFINITY ILLUDOFULVENE CONJUGATES” (Illudent, Inc., published 2025):
The star is where a group is joined. 3‑aminopropyl acylfulvene = analog 211, C-terminal Leu bound as amide to it; Mu = 4-morpholine-carbonyl, O=C(N1CCOCC1)*

Biological target: prostate specific antigen (Homo sapiens)
Experiment: cell-based or functional assay

- IC50 (48 hour exposure), Prostate DuPro (trace PSA): 13 µM
- IC50 (48 hour exposure), Prostate LnCAP (positive PSA): 0.8 µM
Binder: Mu-HSSKLQL-{3‑aminopropyl acylfulvene} [Analog 221 (Mu-His-Ser-Ser-Lys-Leu-Gln coupled to analog 207, 211-leucine)]
